Values quoted from earlier work, collected in paper PMC9395234.

Molecular target: C4BP (Homo sapiens) (UniProt P04003)
Chain of UniProt P04003 (P04003 49-597, chain 1 of 2): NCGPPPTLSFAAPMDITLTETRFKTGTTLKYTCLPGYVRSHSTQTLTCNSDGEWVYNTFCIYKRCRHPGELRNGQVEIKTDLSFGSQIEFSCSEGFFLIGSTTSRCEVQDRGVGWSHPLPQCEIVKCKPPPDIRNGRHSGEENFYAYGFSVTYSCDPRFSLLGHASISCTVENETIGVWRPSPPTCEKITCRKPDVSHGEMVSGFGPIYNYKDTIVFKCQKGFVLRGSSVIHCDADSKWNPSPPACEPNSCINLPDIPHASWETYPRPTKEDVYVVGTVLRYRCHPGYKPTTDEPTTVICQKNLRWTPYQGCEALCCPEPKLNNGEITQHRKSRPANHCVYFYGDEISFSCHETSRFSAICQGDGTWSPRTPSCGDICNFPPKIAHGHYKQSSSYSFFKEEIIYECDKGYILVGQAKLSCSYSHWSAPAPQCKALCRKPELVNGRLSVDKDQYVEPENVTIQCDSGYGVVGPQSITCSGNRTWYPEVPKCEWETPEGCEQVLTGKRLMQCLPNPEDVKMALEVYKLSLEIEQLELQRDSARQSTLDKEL
Chain of UniProt P04003 (P20851 18-252, chain 2 of 2, further chain): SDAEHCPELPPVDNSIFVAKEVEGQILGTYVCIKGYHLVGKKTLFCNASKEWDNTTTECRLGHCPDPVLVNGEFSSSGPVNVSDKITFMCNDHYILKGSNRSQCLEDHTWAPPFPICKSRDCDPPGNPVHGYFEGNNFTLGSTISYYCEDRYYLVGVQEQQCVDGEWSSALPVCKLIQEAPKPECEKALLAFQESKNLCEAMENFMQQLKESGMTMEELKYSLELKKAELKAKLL

Kd: 0.1 nM
Substance: Protein S (from UniProt P07225)
